We go through one molecule from PMC5771398, “Structural basis for assembly of the CBF3 kinetochore complex” (The EMBO Journal, 2017).

This experiment addresses T1, Cep3-Ctf13-Skp1 core complex (S. cerevisiae, UniProt P40969 1-608; P35203 1-478; P52286 1-194, four phosphorylations (intact mass spectrometry); sites not given).
T1 construct: Cep3, budding yeast, full length; Ctf13, budding yeast, full length; Skp1, budding yeast, full length; Core complex as it stood in size-exclusion chromatography with Ndc10 or the Ndc10 NTD (tag cleaved); also called CBF3 core complex; coreWT; source: S. cerevisiae, co-expressed, purified (Strep-Trap, heparin, TEV, anion exchange, SEC); not shown: double-StrepTactin tag, C-terminal, cleaved; …
The experiment in a line: SEC; Superose 6 in 10 mM HEPES, 300 mM NaCl, 1 mM DTT; core and Ndc10 separated on heparin and combined, tag cleaved; stoichiometry judged by band intensities on SDS-PAGE/Coomassie. The note with it: both partners purified.

T1 sequence (P40969 whole entry, chain 1 of 3): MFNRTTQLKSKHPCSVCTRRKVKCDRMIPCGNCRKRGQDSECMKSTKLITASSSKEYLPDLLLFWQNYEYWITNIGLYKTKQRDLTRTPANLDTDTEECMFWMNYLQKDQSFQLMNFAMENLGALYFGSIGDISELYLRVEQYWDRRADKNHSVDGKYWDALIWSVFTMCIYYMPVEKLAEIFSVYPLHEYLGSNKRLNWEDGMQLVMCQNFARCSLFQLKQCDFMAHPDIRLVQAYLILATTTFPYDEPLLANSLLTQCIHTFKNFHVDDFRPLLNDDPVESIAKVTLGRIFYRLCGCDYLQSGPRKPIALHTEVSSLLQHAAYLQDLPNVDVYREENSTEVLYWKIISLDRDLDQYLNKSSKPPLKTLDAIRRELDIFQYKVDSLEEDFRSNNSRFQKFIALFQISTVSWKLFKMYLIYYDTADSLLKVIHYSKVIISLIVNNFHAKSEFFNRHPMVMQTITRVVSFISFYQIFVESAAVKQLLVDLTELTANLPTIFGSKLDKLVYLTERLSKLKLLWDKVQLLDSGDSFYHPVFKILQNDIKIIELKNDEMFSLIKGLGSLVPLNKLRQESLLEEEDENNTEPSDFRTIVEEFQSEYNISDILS
T1 sequence (P35203 whole entry, chain 2 of 3): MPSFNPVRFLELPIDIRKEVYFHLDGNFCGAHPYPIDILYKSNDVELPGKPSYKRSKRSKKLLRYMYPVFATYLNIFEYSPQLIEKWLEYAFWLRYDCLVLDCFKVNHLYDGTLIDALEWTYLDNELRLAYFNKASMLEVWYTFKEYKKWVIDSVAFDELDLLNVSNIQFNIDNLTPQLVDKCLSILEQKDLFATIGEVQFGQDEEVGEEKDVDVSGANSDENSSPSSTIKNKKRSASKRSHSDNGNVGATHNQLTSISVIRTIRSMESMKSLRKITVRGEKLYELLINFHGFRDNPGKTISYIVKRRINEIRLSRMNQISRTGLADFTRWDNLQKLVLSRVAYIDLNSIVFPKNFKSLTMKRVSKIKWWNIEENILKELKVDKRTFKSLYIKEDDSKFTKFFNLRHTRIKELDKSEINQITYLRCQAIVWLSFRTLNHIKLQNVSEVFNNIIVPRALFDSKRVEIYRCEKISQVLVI
T1 sequence (P52286 whole entry, chain 3 of 3): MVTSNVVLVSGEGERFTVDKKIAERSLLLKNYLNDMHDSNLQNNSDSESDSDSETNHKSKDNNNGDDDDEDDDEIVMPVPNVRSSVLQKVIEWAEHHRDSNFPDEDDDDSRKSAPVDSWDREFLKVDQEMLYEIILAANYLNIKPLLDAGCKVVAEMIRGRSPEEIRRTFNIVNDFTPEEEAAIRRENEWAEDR

B1: Ndc10 (natural protein, S. cerevisiae, UniProt P32504 1-956, looked up)
chain: MRSSILFLLKLMKIMDVQQQQEAMSSEDRFQELVDSLKPRTAHQYKTYYTKYIQWCQLNQIIPTPEDNSVNSVPYKDLPISAELIHWFLLDTLITDDKPGEKREETEDLDEEEENSFKIATLKKIIGSLNFLSKLCKVHENPNANIDTKYLESVTKLHTHWIDSQKAITTNETNNTNTQVLCPPLLKVSLNLWNPETNHLSEKFFKTCSEKLRFLVDFQLRSYLNLSFEERSKIRFGSLKLGKRDRDAIIYHKVTHSAEKKDTPGHHQLLALLPQDCPFICPQTTLAAYLYLRFYGIPSVSKGDGFPNLNADENGSLLQDIPILRGKSLTTYPREETFSNYYTTVFRYCHLPYKRREYFNKCNLVYPTWDEDTFRTFFNEENHGNWLEQPEAFAFPDKIPFDFKKIMNFKSPYTSYSTNAKKDPFPPPKDLLVQIFPEIDEYKRHDYEGLSQNSRDFLDLMEVLRERFLSNLPWIYKFFPNHDIFQDPIFGNSDFQSYFNDKTIHSKGSPILSFDILPGFNKIYKNKTNFYSLLIERPSQLTFASSHNPDTHPTQKQESEGPLQMSQLDTTQLNELLKQQSFEYVQFQTLSNFQILLSVFNKIFEKLEMKKSSRGYILHQLNLFKITLDERIKKSKIDDADKFIRDNQPIKKEENIVNEDGPNTSRRTKRPKQIRLLSIADSSDESSTEDSNVFKKDGESIEDGAYGENEDENDSEMQEQLKSMINELINSKISTFLRDQMDQFELKINALLDKILEEKVTRIIEQKLGSHTGKFSTLKRPQLYMTEEHNVGFDMEVPKKLRTSGKYAETVKDNDDHQAMSTTASPSPEQDQEAKSYTDEQEFMLDKSIDSIEGIILEWFTPNAKYANQCVHSMNKSGNKSWRANCEALYKERKSIVEFYIYLVNHESLDRYKAVDICEKLRDQNEGSFSRLAKFLRKWRHDHQNSFDGLLVYLSN
notes: synthetic gene codon-optimised for S. cerevisiae; also called full-length Ndc10; source: S. cerevisiae, co-expressed with the other CBF3 subunits and Sgt1; in lysate (pull-down) and purified (heparin, anion exchange, SEC)
As for B1, the “stoichiometry N” value worked out at 2.
